Experimental data reported in patent US9249224B2 (RINAT NEUROSCIENCE CORP., priority 2011, dated 2016).

Tests used:
[1] = test system: IGFBP-3; test: Serum IGFBP-3 levels in cynomolgus monkeys after a single antibody dose; assay type: in vivo, cynomolgus monkey; conditions: for serum IGFBP-3 levels (% change from baseline) / serum IGFBP-3 decrease below baseline: cynomolgus monkeys
Description: To determine if GHR antagonist monoclonal antibodies can affect IGF-1, IGFBP-3, and ALS levels in vivo by inhibiting the function of GHR, the effect of humanized anti-human GHR antibody SS1 was tested in cynomolgus monkeys. A dose-response study was conducted to test for changes in IGF-1, IGFBP-3, and ALS levels following a single dose of SS1. Eight naïve female cynomolgus monkeys were injected intravenously with a single dose of SS1 or negative control human IgG2, in 1×PBS 0.01% Tween™ 20. Two monkeys were dosed with 30 mg/kg SS1, two were dosed with 10 mg/kg SS1, two were dosed with 3 mg/kg SS1, and two were dosed with 30 mg/kg negative control human IgG2Δa on Day 1. […] Serum was also taken from the 30 mg/kg SS1 and negative control treated animals at 864 h post-dose.
Serum samples were analyzed for changes in IGFBP-3 levels compared to baseline using an R&D Systems™ Quantikine™ human IGFBP-3 immunoassay kit (cat. #DGB300).

[2] = test system: cyno GHR; test: STAT5 phosphorylation in vitro assay, cyno GHR-transfected HEK293 cells; assay type: cell-based, cynomolgus monkey; conditions: for fluorescent signal ave (phospho-STAT5): Table 8, cyno GHR-transfected cells
cyno GHR, sequence (as listed by the source): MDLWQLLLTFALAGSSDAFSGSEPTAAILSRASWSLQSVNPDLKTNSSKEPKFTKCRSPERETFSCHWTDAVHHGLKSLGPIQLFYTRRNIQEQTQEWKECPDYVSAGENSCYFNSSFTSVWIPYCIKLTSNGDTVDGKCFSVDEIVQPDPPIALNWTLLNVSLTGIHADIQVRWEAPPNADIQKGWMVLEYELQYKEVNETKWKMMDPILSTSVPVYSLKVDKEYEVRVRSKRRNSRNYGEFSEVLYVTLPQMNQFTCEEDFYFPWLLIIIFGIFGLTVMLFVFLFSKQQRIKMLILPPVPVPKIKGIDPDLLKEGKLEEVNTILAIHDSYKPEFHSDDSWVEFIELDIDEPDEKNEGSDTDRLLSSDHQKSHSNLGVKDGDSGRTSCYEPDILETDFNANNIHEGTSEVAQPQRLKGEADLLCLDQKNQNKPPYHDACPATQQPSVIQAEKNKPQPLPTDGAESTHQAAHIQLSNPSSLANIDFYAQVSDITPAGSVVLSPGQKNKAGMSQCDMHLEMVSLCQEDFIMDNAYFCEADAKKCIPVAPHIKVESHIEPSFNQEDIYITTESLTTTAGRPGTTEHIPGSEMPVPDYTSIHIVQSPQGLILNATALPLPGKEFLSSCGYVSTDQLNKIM
Description: This Example illustrates the effect of GHR antibodies in an in vitro STAT5 phosphorylation assay. In this Example, the ability of GHR antibodies to block GHR downstream signaling was tested in vitro using human GHR overexpressing cells and cyno GHR overexpressing cells.
GHR antagonist antibody Ab13 was tested for its ability to block STAT5 in an in vitro assay. HEK293 cells were transiently transfected with either DNA encoding full-length human GHR (SEQ ID NO: 140) or DNA encoding full-length cyno GHR (SEQ ID NO: 141). Cells were cultured in freestyle media for approximately 60 hours before testing. Cells were washed with DPBS (Dulbecco's Phosphate-Buffered Saline) and resuspended in Freestyle media, then counted using a hemocytometer. 1×10^6 cells were seeded per well in 6-well plates in 2 mls of Freestyle media. Cells were incubated for 2 hours at 37° C., then treated with 5, 50, or 500 nM Ab13 antibody in media. Cells were incubated at 37° C. with gentle mixing for 5 min with antibodies. 4.5 nM GH (Genotropin) was then added to all but control wells. Cells were incubated with GH at 37° C. with gentle mixing for 10 minutes.
Following incubation with GH, 2 ml of ice cold DPBS with 1× protease inhibitor cocktail (Roche) and 1 mM sodium orthovanadate (BioLabs) were added to each well and the plates were placed on ice. Cells were transferred to 5 ml tubes and spun down to create a cell pellet and the wash buffer was aspirated, leaving the cell pellet.
Reagents from Millipore™ MILLIPLEX® MAP Cell Signaling Buffer and Detection Kit (cat. #48-602) were used to lyse and treat the cell pellets. Millipore lysis buffer with 1× protease inhibitor cocktail and 1 mM sodium orthovanadate was added to each pellet at a volume of 200 ul/pellet. Cells were vortexed and incubated for 15 minutes at room temp with occasional vortexing. Millipore Assay buffer 2 with 1× protease inhibitor cocktail and 1 mM sodium orthovanadate was then added to the lysates at 300 ul/well.
Millipore™ MILLIPLEX® MAP Phospho STAT5N8 (Tyr694/699) MAPmate™ beads (Cat. #46-641) were resuspended in Assay Buffer 2 (from Millipore™ kit cat. #48-602) and loaded on a 96-well filter plate (provided in kit) at 25 ul/well, 25 ul/well of sample lysate was added to the wells and the beads and samples were incubated overnight at 4′C with shaking in the dark.
The liquid was then aspirated using a vacuum manifold and the remaining beads were washed using Millipore™ kit wash buffer. 25 ul Millipore™ kit detection antibody was added and incubated for 1 hour at room temperature with shaking in the dark. The detection antibody was vacuumed through and 25 ul kit streptavidin—Phycoerythrin was added and incubated in the dark for 15 min with shaking. 25 ul kit amplification buffer was then added and incubated for 15 min with shaking in the dark. The liquid was aspirated using a vacuum manifold, and the beads were resuspended in 150 ul kit assay buffer 2 and mixed on a shaker for 5 minutes before reading the plate.
The plate was read using a Luminex™ 200 instrument and fluorescent signal emitted from the samples was measured, The results of the STAT5 assay are shown in Tables 5 and 6. “Ave” indicates the average fluorescent signal, and “SEM” indicates the standard error of the mean.
Antibodies SS3 and SS1 (hIgG2Δa) were tested using a STAT5 phosphorylation assay. For the STAT5 assay, full-length human GHR overexpressing HEK293 cells or full-length cyno GHR-overexpressing HEK293 cells were cultured, counted by automated cell counter, and seeded in warm freestyle media in 12-well plates (5×10^5 cells/well in 1 ml media). Cells were allowed to settle for 3 hours at 37° C. then treated with 2.5, 5, 50, or 500 nM of SS1 or SS3 in media. […] Cells were incubated with GH at 37° C. with gentle mixing for 10 minutes.
Reagents from Millipore™ MILLIPLEX® MAP Cell Signaling Buffer and Detection Kit (cat, #48-602) were used to lyse and treat the cell pellets. […]

B1: SS1: humanized GHR antagonist antibody; VL SEQ ID NO: 7, VH SEQ ID NO: 8; hIgG2Δa heavy chain SEQ ID NO: 134, light chain SEQ ID NO: 135 (antibody)
heavy: EVQLVESGGGLVKPGGSLRLSCAASGFTFSDAWMDWVRQAPGKGLEWVAEIRSKANYHATYYAESVKGRFTISRDDSKNTLYLQMNSLKTEDTAVYYCTLIRDYWGQGTLVTVSSASTKGPSVFPLAPCSRSTSESTAALGCLVKDYFPEPVTVSWNSGALTSGVHTFPAVLQSSGLYSLSSVVTVPSSNFGTQTYTCNVDHKPSNTKVDKTVERKCCVECPPCPAPPVAGPSVFLFPPKPKDTLMISRTPEVTCVVVDVSHEDPEVQFNWYVDGVEVHNAKTKPREEQFNSTFRVVSVLTVVHQDWLNGKEYKCKVSNKGLPSSIEKTISKTKGQPREPQVYTLPPSREEMTKNQVSLTCLVKGFYPSDIAVEWESNGQPENNYKTTPPMLDSDGSFFLYSKLTVDKSRWQQGNVFSCSVMHEALHNHYTQKSLSLSPGK
light: EIVLTQSPGTLSLSPGERATLSCTATSSVSSSYLNWYQQKPGQAPRLLIYSTSNLASGIPDRFSGSGSGTDFTLTISRLEPEDFAVYYCHQYHRSTPTFGGGTKVEIKRTVAAPSVFIFPPSDEQLKSGTASVVCLLNNFYPREAKVQWKVDNALQSGNSQESVTEQDSKDSTYSLSSTLTLSKADYEKHKVYACEVTHQGLSSPVTKSFNRGEC
modifications: Humanized and/or affinity matured antibody sequence
serum IGFBP-3 levels (% change from baseline) ([1]; SS1 3 mg/kg IV single dose, 24 h post-injection): −18.75 +/− 1.25% | serum IGFBP-3 levels (% change from baseline) ([1]; SS1 3 mg/kg IV single dose, 48 h post-injection): −22.8 +/− 3.8% | serum IGFBP-3 levels (% change from baseline) ([1]; SS1 3 mg/kg IV single dose, 72 h post-injection): −36.45 +/− 6.65% | serum IGFBP-3 levels (% change from baseline) ([1]; SS1 3 mg/kg IV single dose, 96 h post-injection): −37.35 +/− 5.05% | serum IGFBP-3 levels (% change from baseline) ([1]; SS1 3 mg/kg IV single dose, 120 h post-injection): −38.25 +/− 4.85% | serum IGFBP-3 levels (% change from baseline) ([1]; SS1 3 mg/kg IV single dose, 144 h post-injection): −46.8 +/− 0.6% | serum IGFBP-3 levels (% change from baseline) ([1]; SS1 3 mg/kg IV single dose, 192 h post-injection): −32.55 +/− 1.35% | serum IGFBP-3 levels (% change from baseline) ([1]; SS1 3 mg/kg IV single dose, 312 h post-injection): 22.4 +/− 1.9% | serum IGFBP-3 levels (% change from baseline) ([1]; SS1 3 mg/kg IV single dose, 336 h post-injection): 28.15 +/− 12.25% | serum IGFBP-3 decrease below baseline ([1]; SS1 3 mg/kg IV single dose, by 72 hours): about 36% | serum IGFBP-3 decrease below baseline ([1]; SS1 3 mg/kg IV single dose, by 144 hours): about 47% | serum IGFBP-3 levels (% change from baseline) ([1]; SS1 10 mg/kg IV single dose, 24 h post-injection): −23.95 +/− 3.35% | serum IGFBP-3 levels (% change from baseline) ([1]; SS1 10 mg/kg IV single dose, 48 h post-injection): −28.4 +/− 2.9% | serum IGFBP-3 levels (% change from baseline) ([1]; SS1 10 mg/kg IV single dose, 72 h post-injection): −37.9 +/− 2.4% | serum IGFBP-3 levels (% change from baseline) ([1]; SS1 10 mg/kg IV single dose, 96 h post-injection): −40.95 +/− 0.35% | serum IGFBP-3 levels (% change from baseline) ([1]; SS1 10 mg/kg IV single dose, 120 h post-injection): −46.4 +/− 1.1% | serum IGFBP-3 levels (% change from baseline) ([1]; SS1 10 mg/kg IV single dose, 144 h post-injection): −51.05 +/− 8.85% | serum IGFBP-3 levels (% change from baseline) ([1]; SS1 10 mg/kg IV single dose, 192 h post-injection): −45.95 +/− 6.35% | serum IGFBP-3 levels (% change from baseline) ([1]; SS1 10 mg/kg IV single dose, 312 h post-injection): −38.7 +/− 9.6% | serum IGFBP-3 levels (% change from baseline) ([1]; SS1 10 mg/kg IV single dose, 336 h post-injection): −42.25 +/− 1.85% | serum IGFBP-3 decrease below baseline ([1]; SS1 10 mg/kg IV single dose, by 72 hours): ~38% | serum IGFBP-3 decrease below baseline ([1]; SS1 10 mg/kg IV single dose, by 144 hours): ~51% | serum IGFBP-3 levels (% change from baseline) ([1]; SS1 30 mg/kg IV single dose, 24 h post-injection): −10.6 +/− 4.6% | serum IGFBP-3 levels (% change from baseline) ([1]; SS1 30 mg/kg IV single dose, 48 h post-injection): −15.75 +/− 9.35% | serum IGFBP-3 levels (% change from baseline) ([1]; SS1 30 mg/kg IV single dose, 72 h post-injection): −22.95 +/− 16.15% | serum IGFBP-3 levels (% change from baseline) ([1]; SS1 30 mg/kg IV single dose, 96 h post-injection): −29.4 +/− 13.9% | serum IGFBP-3 levels (% change from baseline) ([1]; SS1 30 mg/kg IV single dose, 120 h post-injection): −38.15 +/− 9.45% | serum IGFBP-3 levels (% change from baseline) ([1]; SS1 30 mg/kg IV single dose, 144 h post-injection): −45.7 +/− 11.9% | serum IGFBP-3 levels (% change from baseline) ([1]; SS1 30 mg/kg IV single dose, 192 h post-injection): −31.05 +/− 16.05% | serum IGFBP-3 levels (% change from baseline) ([1]; SS1 30 mg/kg IV single dose, 312 h post-injection): −40.65 +/− 5.05% | serum IGFBP-3 levels (% change from baseline) ([1]; SS1 30 mg/kg IV single dose, 336 h post-injection): −39.45 +/− 0.85% | serum IGFBP-3 decrease below baseline ([1]; SS1 30 mg/kg IV single dose, by 72 hours): ~23% | serum IGFBP-3 decrease below baseline ([1]; SS1 30 mg/kg IV single dose, by 144 hours): ~46% | effect on serum IGFBP-3 levels in cynomolgus monkey ([1]; single IV dose 3, 10 or 30 mg/kg): dose dependently reduces serum IGFBP-3 levels | fluorescent signal ave (phospho-STAT5) ([2]; 2.5 nM antibody + 4.5 nM GH): 496 | fluorescent signal ave (phospho-STAT5) ([2]; 5 nM antibody + 4.5 nM GH): 223 | fluorescent signal ave (phospho-STAT5) ([2]; 50 nM antibody + 4.5 nM GH): 17 | fluorescent signal ave (phospho-STAT5) ([2]; 500 nM antibody + 4.5 nM GH): 12 | effect on GH-stimulated STAT5 signaling ([2]; cells expressing cyno GHR, 4.5 nM GH): blocked STAT5 signaling in a dose-dependent manner
